Data taken from US20260201033A1 (LTZ THERAPEUTICS, published 2026).
Like-named read-outs stand apart in the source and are kept apart here.

What was measured:
[1] = biological target: T1, mouse CLEC5A (R&D Systems, Cat #: 8438-CL-050) (mouse, UniProt Q9R007 26-190, limits assumed); experiment: ELISA, plate coated with mouse CLEC5A
T1 construct: Bought protein; also called recombinant mouse CLEC5A protein
T1 sequence: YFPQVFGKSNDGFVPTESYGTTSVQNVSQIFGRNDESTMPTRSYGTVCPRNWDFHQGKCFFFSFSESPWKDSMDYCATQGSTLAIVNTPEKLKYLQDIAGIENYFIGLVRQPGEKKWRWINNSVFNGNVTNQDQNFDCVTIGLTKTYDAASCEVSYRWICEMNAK

[2] = biological target: T2, recombinant human CLEC5A, His Tag (ACROBiosystems, Cat #: NC1-H52H4) (human, UniProt Q9NY25 28-188); experiment: BLI, antibody 10 ug/ml captured on anti-human IgG Fc probe, analyte hCLEC5a; table row hCLEC5a 1.56 nM; all four rows print the same value
T2 construct: Analyte of the BLI assay; Its catalogue number differs from that of the ELISA antigen; also called human CLEC5A (BLI analyte)
T2 sequence: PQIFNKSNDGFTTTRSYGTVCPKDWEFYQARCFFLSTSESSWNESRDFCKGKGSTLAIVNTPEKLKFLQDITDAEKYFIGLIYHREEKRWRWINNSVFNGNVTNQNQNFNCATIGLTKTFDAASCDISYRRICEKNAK

[3] = biological target: T3, Human C-type lectin domain family 5 member A (CLEC5A), endogenous on human monocytes and M0 macrophages (human, UniProt Q9NY25 1-188); experiment: flow cytometry on human M0 macrophages, anti-human IgG PE
T3 construct: Endogenous CLEC5A on primary human monocytes and monocyte-derived M0 macrophages; also called MDL-1; M0 macrophages (CLEC5A+) cells
T3 sequence: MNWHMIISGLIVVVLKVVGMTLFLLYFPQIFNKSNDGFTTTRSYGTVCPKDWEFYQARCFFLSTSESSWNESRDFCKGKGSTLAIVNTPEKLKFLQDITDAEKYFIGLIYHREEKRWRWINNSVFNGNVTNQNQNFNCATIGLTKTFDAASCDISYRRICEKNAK

[4] = biological target: T2, recombinant human CLEC5A, His Tag …; experiment: BLI, antibody 10 ug/ml captured on anti-human IgG Fc probe, analyte hCLEC5a; table row hCLEC5a 0.78 nM; all four rows print the same value
[5] = biological target: T4, Human CLEC5A His Tag protein (ACROBiosystems, Cat #: CLA-H5243) (human, UniProt Q9NY25 28-188, limits assumed); experiment: ELISA, plate coated with human CLEC5A
T4 construct: Bought protein with a His tag; also called recombinant human CLEC5A protein
T4 sequence: T2 sequence

[6] = biological target: T2, recombinant human CLEC5A, His Tag …; experiment: BLI, antibody 10 ug/ml captured on anti-human IgG Fc probe, analyte hCLEC5a; table row hCLEC5a 3.12 nM; all four rows print the same value
[7] = biological target: T4, Human CLEC5A His Tag protein …; experiment: ELISA, plate coated with human CLEC5A; remark: listed apart in the source
[8] = biological target: T2, recombinant human CLEC5A, His Tag …; experiment: BLI, antibody 10 ug/ml captured on anti-human IgG Fc probe, analyte hCLEC5a; table row hCLEC5a 6.25 nM; all four rows print the same value
[9] = biological target: T3, Human C-type lectin domain family 5 …; experiment: flow cytometry on human M0 macrophages (CLEC5A+), anti-human IgG PE, MFI (PE)
[10] = biological target: T3, Human C-type lectin domain family 5 …; experiment: flow cytometry on human M0 macrophages, anti-human IgG PE; remark: listed apart in the source
EpCAM on DLD-1 cells [11] = biological target: T5, EpCAM on DLD-1 cells (human, UniProt P16422 24-314); experiment: flow cytometry on DLD-1 cells (EPCAM+), anti-human IgG PE
T5 construct: whole, on cells; also called DLD-1 cells (EPCAM+); hEpCAM
T5 sequence (looked up): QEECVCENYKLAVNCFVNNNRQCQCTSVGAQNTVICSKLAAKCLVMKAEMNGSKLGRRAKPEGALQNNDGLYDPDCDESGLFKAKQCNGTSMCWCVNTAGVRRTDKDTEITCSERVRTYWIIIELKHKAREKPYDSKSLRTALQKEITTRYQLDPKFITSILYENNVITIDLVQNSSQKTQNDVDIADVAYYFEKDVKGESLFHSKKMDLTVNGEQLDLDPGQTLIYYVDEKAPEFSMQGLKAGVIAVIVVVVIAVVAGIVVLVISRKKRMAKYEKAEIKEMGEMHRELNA

EpCAM on DLD-1 cells [12] = biological target: T5, EpCAM on DLD-1 cells; experiment: cell-based or functional assay
[13] = biological target: T6, human EGFR (ACROBiosystems, Cat #: EGR-H5222) (human, UniProt P00533 25-645); experiment: ELISA, plate coated with human EGFR
T6 construct: Bought protein; also called recombinant human EGFR protein

EGFR on DLD-1 cells = EGFR on DLD-1 cells (UniProt P00533 25-1210, limits assumed); experiment: cell-based or functional assay

B1: 5C7, chimeric rabbit/human IgG1 anti-CLEC5A antibody (Fc-silenced) (antibody, V domains shown)
VH: QSLEESGGDLVKPGASLTLTCTASGFSFSRSSYMCWVRQAPGKGLEWIGCLSVGDGHTYYASWAKGRFTISKTSSTSVTLQMTRLTAADTATYFCARAPSYSGDGGHGYDLWGPGTLVTVSS
VL: AIVMTQTPSSKSVPVGDTVTINCQASESVDRNNRLAWFQQKPGQPPKLLIYTTSTLASGVPSRFKGSGSGTHFTLTISDVVPDDAATYYCAGYRGAHTDGDAFGGGTEVVVK
notes: also called ch5C7; 5C7 Fc-silenced
Which results are given for B1?
EC50 [1]: 0.194 nM; Kd [2]: 0.15 nM; koff [2]: 0.000189 s⁻¹; kon [2]: 1.26e+06 M⁻¹ s⁻¹; EC50 [3]: 3.93 nM; Kd [4]: 0.15 nM; koff [4]: 0.000189 s⁻¹; kon [4]: 1.26e+06 M⁻¹ s⁻¹; EC50 [5]: 0.9 nM; Kd [6]: 0.15 nM; koff [6]: 0.000189 s⁻¹; kon [6]: 1.26e+06 M⁻¹ s⁻¹; EC50 [7]: 0.158 µg/mL; Kd [8]: 0.15 nM; koff [8]: 0.000189 s⁻¹; kon [8]: 1.26e+06 M⁻¹ s⁻¹; EC50 (read off the curve) [9]: ~0.8 nM; EC50 [10]: 0.49 nM

B2: anti-EpCAM antibody (Solitomab EpCAM binding part IgG form) (antibody, V domains shown)
VH: QVQLQQSGAELVRPGTSVKVSCKASGYAFTNYLIEWVKQRPGQGLEWIGVINPGSGGTNYNEKFKGKATLTADKSSSTAYMQLSSLTSDDSAVYFCARDGPWFAYWGQGTLVTVSA
VL: NIVMTQSPKSMSMSVGERVTLTCKASENVVTYVSWYQQKPEQSPKLLIYGASNRYTGVPDRFTGSGSATDFTLTISSVQAEDLADYHCGQGYSYPYTFGGGTKLEIK
notes: IgG form
B2 was tested. Which EC50 (EpCAM on DLD-1 cells [11]) did it give?
Its EC50 is 0.67 nM.

What about the “IC50 (nM), DLD-1 cell killing by M0 macrophages” value (EpCAM on DLD-1 cells [12]) of the same binder?
Its value is 0.0812 nM.

B3: EpCAM/5C7 (2+2 A) Fc-optimized (bispecific antibody, human IgG1, kappa)
heavy: QVQLQQSGAELVRPGTSVKVSCKASGYAFTNYLIEWVKQRPGQGLEWIGVINPGSGGTNYNEKFKGKATLTADKSSSTAYMQLSSLTSDDSAVYFCARDGPWFAYWGQGTLVTVSAASTKGPSVFPLAPSSKSTSGGTAALGCLVKDYFPEPVTVSWNSGALTSGVHTFPAVLQSSGLYSLSSVVTVPSSSLGTQTYICNVNHKPSNTKVDKKVEPKSCDKTHTCPPCPAPELLAGPSVFLFPPKPKDTLMISRTPEVTCVVVDVSHEDPEVKFNWYVDGVEVHNAKTKPREEQYNSTYRVVSVLTVLHQDWLNGKEYKCKVSNKALPLPEEKTISKAKGQPREPQVYTLPPSRDELTKNQVSLTCLVKGFYPSDIAVEWESNGQPENNYKTTPPVLDSDGSFFLYSKLTVDKSRWQQGNVFSCSVMHEALHNHYTQKSLSLSPGK
light: NIVMTQSPKSMSMSVGERVTLTCKASENVVTYVSWYQQKPEQSPKLLIYGASNRYTGVPDRFTGSGSATDFTLTISSVQAEDLADYHCGQGYSYPYTFGGGTKLEIKRTVAAPSVFIFPPSDEQLKSGTASVVCLLNNFYPREAKVQWKVDNALQSGNSQESVTEQDSKDSTYSLSSTLTLSKADYEKHKVYACEVTHQGLSSPVTKSFNRGECGGGGSGGGGSGGGGSAIVMTQTPSSKSVPVGDTVTINCQASESVDRNNRLAWFQQKPGQPPKLLIYTTSTLASGVPSRFKGSGSGTHFTLTISDVVPDDAATYYCAGYRGAHTDGDAFGCGTEVVVKGGGGSGGGGSGGGGSGGGGSQSLEESGGDLVKPGASLTLTCTASGFSFSRSSYMCWVRQAPGKCLEWIGCLSVGDGHTYYASWAKGRFTISKTSSTSVTLQMTRLTAADTATYFCARAPSYSGDGGHGYDLWGPGTLVTVSS
notes: also called EpCAM/CLEC5A (2+2 A) Fc-optimized antibody; EpCAM/CLEC5A bispecific antibody
With B3 as the binder, how does the EC50 (EpCAM on DLD-1 cells [11]) read?
Its EC50 is 1.1 nM.

What about the “IC50 (nM), DLD-1 cell killing by M0 macrophages” value (EpCAM on DLD-1 cells [12]) of the same binder?
Its value is 0.0035 nM.

And the EC50 [7]?
The EC50 was 0.064 µg/mL.

What about the EC50 [10] of the same binder?
Its EC50 is 7.35 nM.

B4: EGFR2/5C7 (2+2 A) Fc-optimized (bispecific antibody, human IgG1, kappa)
heavy: QVQLQQSGAEVKKPGSSVKVSCKASGYTFTNYYIYWVRQAPGQGLEWIGGINPTSGGSNFNEKFKTRVTITADESSTTAYMELSSLRSEDTAFYFCTRQGLWFDSDGRGFDFWGQGTTVTVSSASTKGPSVFPLAPSSKSTSGGTAALGCLVKDYFPEPVTVSWNSGALTSGVHTFPAVLQSSGLYSLSSVVTVPSSSLGTQTYICNVNHKPSNTKVDKKVEPKSCDKTHTCPPCPAPELLAGPSVFLFPPKPKDTLMISRTPEVTCVVVDVSHEDPEVKFNWYVDGVEVHNAKTKPREEQYNSTYRVVSVLTVLHQDWLNGKEYKCKVSNKALPLPEEKTISKAKGQPREPQVYTLPPSRDELTKNQVSLTCLVKGFYPSDIAVEWESNGQPENNYKTTPPVLDSDGSFFLYSKLTVDKSRWQQGNVFSCSVMHEALHNHYTQKSLSLSPGK
light: DIQMTQSPSSLSASVGDRVTITCRSSQNIVHSNGNTYLDWYQQTPGKAPKLLIYKVSNRFSGVPSRFSGSGSGTDFTFTISSLQPEDIATYYCFQYSHVPWTFGQGTKLEIKRTVAAPSVFIFPPSDEQLKSGTASVVCLLNNFYPREAKVQWKVDNALQSGNSQESVTEQDSKDSTYSLSSTLTLSKADYEKHKVYACEVTHQGLSSPVTKSFNRGECGGGGSGGGGSGGGGSAIVMTQTPSSKSVPVGDTVTINCQASESVDRNNRLAWFQQKPGQPPKLLIYTTSTLASGVPSRFKGSGSGTHFTLTISDVVPDDAATYYCAGYRGAHTDGDAFGCGTEVVVKGGGGSGGGGSGGGGSGGGGSQSLEESGGDLVKPGASLTLTCTASGFSFSRSSYMCWVRQAPGKCLEWIGCLSVGDGHTYYASWAKGRFTISKTSSTSVTLQMTRLTAADTATYFCARAPSYSGDGGHGYDLWGPGTLVTVSS
notes: also called EGFR/CLEC5A (2+2 A) Fc-optimized antibody with EGFR portion of Nimotuzumab (EGFR2)
Which results are given for B4?
EC50 [13]: 0.12 µg/mL; IC50 (nM), DLD-1 cell killing by M0 macrophages (EGFR on DLD-1 cells): 0.00471 nM; EC50 [7]: 0.081 µg/mL; EC50 [10]: 19.5 nM
